The experiment concerns the target T1, GST–PUB13 (Arabidopsis, UniProt Q9SNC6 1-660).
T1 construct: PUB13, plant U-box E3 ubiquitin ligase of Arabidopsis, full length (UND, U-box and ARM repeat domain); also called full-length PUB13; source: E. coli BL21, purified (glutathione agarose)
T1 sequence (looked up): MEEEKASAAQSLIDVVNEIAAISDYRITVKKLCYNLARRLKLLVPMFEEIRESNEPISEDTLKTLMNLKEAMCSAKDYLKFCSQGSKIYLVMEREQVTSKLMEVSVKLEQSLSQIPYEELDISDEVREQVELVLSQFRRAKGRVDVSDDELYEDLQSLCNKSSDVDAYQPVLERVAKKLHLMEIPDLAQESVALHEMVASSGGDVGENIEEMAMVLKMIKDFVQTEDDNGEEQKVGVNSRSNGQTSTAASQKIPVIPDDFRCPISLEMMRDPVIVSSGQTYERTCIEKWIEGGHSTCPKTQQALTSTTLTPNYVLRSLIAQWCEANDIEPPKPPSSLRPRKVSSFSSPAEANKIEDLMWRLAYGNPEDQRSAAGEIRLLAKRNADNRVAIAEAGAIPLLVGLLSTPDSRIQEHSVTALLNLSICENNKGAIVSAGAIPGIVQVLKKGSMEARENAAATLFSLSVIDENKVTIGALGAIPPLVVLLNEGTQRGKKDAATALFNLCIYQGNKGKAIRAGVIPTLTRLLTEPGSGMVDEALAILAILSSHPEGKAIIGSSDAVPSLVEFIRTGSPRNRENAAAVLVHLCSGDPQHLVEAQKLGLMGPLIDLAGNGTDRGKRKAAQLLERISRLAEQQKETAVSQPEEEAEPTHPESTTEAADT
Kind of experiment: pull-down; About 10 μg of MBP or MBP fusion on amylose beads as bait, 10 μg of GST-tagged protein in 1 ml pull-down buffer (20mM TRIS-HCl pH 7.5, 1mM β-mercaptoethanol, 3mM EDTA, 150mM NaCl, 1% NP-40), 1h at 4 °C; western blot with α-GST (Fig. 1B, 1F). Particulars: both partners purified. For orientation: In western blotting, separated proteins are transferred to a membrane and probed.

B1: MBP–BAK1CD (domain or fragment, Arabidopsis, UniProt Q94F62 247-615, looked up)
chain: AWWRRKKPQDHFFDVPAEEDPEVHLGQLKRFSLRELQVASDNFSNKNILGRGGFGKVYKGRLADGTLVAVKRLKEERTQGGELQFQTEVEMISMAVHRNLLRLRGFCMTPTERLLVYPYMANGSVASCLRERPESQPPLDWPKRQRIALGSARGLAYLHDHCDPKIIHRDVKAANILLDEEFEAVVGDFGLAKLMDYKDTHVTTAVRGTIGHIAPEYLSTGKSSEKTDVFGYGVMLLELITGQRAFDLARLANDDDVMLLDWVKGLLKEKKLEALVDVDLQGNYKDEEVEQLIQVALLCTQSSPMERPKMSEVVRMLEGDGLAERWEEWQKEEMFRQDFNYPTHHPAVSGWIIGDSTSQIENEYPSGPR
notes: BAK1 (BRI1-associated kinase), receptor-like kinase of Arabidopsis, cytoplasmic domain; also called cytoplasmic domain of BAK1; BAK1 cytosolic domain; source: E. coli BL21, purified (amylose)
On to B1, for which the binding result is listed as “binds”.
